Source: patent publication US12427210B2, “Compounds comprising a fibroblast activation protein ligand and use thereof” (priority 2019, dated 2025)
Values belong to the binder of their own block, whether it stands above or below them.

Columns and labels:
Assay in all cases: radioligand displacement, compound at 10 µM
Details in all cases: remark: other sources report otherwise
M2 (h) (human), P08172 = molecular target: T1, M2 (h) (human), P08172
T1 chain: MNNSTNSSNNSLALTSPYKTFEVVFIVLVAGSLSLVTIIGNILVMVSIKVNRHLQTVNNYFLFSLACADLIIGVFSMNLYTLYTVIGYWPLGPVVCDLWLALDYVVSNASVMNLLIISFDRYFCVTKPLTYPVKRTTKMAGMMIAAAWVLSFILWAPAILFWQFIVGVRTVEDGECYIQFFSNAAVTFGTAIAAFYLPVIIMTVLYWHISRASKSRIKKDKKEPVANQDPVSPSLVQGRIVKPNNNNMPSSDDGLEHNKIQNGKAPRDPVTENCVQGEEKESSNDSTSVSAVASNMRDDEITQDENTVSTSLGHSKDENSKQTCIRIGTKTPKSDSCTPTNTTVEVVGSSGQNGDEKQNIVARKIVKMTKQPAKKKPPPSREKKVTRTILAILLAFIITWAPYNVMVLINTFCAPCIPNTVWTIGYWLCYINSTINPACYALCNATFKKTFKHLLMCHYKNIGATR

M3 (h) (human), P20309 = molecular target: M3 (h) (human), P20309
[1] = molecular target: beta 2 (h) (human), P07550
AR (h) (human), P10275 = molecular target: T2, AR (h) (human), P10275
T2 chain: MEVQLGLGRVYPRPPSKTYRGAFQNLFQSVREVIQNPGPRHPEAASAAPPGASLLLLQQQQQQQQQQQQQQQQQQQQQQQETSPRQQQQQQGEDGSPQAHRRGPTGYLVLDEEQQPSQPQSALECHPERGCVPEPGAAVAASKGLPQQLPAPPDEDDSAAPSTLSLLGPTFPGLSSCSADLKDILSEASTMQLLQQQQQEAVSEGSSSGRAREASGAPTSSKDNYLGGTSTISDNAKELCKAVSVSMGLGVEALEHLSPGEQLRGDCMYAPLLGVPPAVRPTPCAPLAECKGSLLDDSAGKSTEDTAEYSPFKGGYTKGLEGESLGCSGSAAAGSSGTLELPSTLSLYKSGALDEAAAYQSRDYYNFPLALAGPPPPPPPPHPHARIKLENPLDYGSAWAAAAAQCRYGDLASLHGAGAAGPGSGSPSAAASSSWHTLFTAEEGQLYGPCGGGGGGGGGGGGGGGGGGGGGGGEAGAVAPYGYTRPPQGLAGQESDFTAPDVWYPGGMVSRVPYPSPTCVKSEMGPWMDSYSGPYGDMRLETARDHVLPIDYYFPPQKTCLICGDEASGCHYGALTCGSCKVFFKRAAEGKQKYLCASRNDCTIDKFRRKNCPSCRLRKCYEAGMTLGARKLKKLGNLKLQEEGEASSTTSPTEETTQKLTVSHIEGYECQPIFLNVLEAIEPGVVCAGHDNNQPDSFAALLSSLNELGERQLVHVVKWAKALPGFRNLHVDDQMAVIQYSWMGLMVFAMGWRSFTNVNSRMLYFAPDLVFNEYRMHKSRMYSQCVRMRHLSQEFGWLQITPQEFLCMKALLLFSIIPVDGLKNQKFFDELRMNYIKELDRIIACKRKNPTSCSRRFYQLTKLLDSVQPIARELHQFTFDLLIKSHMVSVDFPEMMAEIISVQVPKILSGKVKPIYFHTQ

[2] = molecular target: 5-HT1B (h) (human), P28222
[3] = molecular target: T3, 5-HT3 (h) (human), P46098
T3 chain: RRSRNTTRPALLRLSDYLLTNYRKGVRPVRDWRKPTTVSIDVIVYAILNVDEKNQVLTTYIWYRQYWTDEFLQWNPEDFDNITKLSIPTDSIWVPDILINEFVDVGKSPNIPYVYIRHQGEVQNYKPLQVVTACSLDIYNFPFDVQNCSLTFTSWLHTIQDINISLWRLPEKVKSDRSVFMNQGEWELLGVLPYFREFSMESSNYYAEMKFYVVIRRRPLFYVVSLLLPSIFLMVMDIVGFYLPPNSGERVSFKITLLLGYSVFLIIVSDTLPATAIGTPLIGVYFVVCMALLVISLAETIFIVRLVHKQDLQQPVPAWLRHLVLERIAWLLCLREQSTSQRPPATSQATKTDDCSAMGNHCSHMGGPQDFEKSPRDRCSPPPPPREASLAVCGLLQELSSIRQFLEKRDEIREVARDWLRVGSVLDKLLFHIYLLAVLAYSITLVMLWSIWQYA

M1 (h) (human), P11229 = molecular target: T4, M1 (h) (human), P11229
T4 chain: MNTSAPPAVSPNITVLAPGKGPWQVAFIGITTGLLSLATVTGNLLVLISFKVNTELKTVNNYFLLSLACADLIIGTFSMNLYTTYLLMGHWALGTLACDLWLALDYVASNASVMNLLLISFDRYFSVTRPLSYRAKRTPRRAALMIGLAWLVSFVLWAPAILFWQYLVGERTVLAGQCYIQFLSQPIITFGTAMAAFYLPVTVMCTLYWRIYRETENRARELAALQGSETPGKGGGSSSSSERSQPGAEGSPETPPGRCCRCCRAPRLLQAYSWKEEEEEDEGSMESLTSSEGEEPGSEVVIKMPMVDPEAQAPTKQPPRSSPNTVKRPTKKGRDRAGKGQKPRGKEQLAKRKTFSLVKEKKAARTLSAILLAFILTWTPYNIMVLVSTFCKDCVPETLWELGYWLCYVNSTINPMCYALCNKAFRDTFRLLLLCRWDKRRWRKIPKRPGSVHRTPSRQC

[4] = molecular target: mu (MOP) (h) (human), P35372
Sequence of mu (MOP) (h) (human), P35372 (P35372 whole entry): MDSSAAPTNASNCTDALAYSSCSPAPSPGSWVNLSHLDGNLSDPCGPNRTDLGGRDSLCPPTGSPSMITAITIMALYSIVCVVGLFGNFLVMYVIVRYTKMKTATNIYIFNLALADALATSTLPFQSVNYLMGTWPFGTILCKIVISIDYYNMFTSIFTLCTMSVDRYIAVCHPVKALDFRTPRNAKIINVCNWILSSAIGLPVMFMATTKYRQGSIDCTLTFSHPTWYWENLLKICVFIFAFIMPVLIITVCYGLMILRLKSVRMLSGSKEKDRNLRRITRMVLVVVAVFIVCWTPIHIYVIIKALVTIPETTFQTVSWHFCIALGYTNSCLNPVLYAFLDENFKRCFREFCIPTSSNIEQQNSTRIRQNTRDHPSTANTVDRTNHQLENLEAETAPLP

CB2 (h) (human), P34972 = molecular target: CB2 (h) (human), P34972
Sequence of CB2 (h) (human), P34972 (P34972 whole entry): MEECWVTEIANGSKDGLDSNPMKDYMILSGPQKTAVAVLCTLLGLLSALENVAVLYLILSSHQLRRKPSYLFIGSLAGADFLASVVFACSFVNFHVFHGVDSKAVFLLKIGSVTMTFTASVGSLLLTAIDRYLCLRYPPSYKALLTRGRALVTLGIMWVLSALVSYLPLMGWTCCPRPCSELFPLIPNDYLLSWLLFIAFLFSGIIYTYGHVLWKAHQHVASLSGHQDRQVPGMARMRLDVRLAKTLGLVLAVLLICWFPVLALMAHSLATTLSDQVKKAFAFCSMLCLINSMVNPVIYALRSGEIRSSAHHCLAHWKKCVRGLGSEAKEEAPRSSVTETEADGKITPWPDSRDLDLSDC

% Inhibition of Specific Binding (M2 (h) (human), P08172): 7%
% Inhibition of Specific Binding (M3 (h) (human), P20309): 1%
% Inhibition of Specific Binding [1]: 8%
% Inhibition of Specific Binding (AR (h) (human), P10275): -5%
% Inhibition of Specific Binding [2]: 8%
% Inhibition of Specific Binding [3]: 4%
% Inhibition of Specific Binding (M1 (h) (human), P11229): 8%
% Inhibition of Specific Binding [4]: -10%
% Inhibition of Specific Binding (CB2 (h) (human), P34972): -5%
B1: Hex-[Cys(tMeBn(DOTA-AET))-Pro-Pro-Thr-Gln-Phe-Cys]-OH (3BP-3554) (peptide)
peptide: CPPTQFC
modifications: here or on the partner: N-terminal hexanoyl (Hex); Cys1 and Cys7 cyclised through tMeBn carrying DOTA-AET; free C-terminal acid (-OH)

% Inhibition of Specific Binding (M2 (h) (human), P08172): -4%
% Inhibition of Specific Binding (M3 (h) (human), P20309): 10%
% Inhibition of Specific Binding [1]: 4%
% Inhibition of Specific Binding (AR (h) (human), P10275): 3%
% Inhibition of Specific Binding [2]: -11%
% Inhibition of Specific Binding [3]: 2%
% Inhibition of Specific Binding (M1 (h) (human), P11229): 6%
% Inhibition of Specific Binding [4]: 2%
% Inhibition of Specific Binding (CB2 (h) (human), P34972): 2%
B2: Hex-[Cys(tMeBn(DOTA-PP))-Pro-Pro-Thr-Gln-Phe-Cys]-Asp-NH2 (3BP-3407) (peptide)
peptide: CPPTQFCD
modifications: here or on the partner: N-terminal hexanoyl (Hex); Cys1 and Cys7 cyclised through tMeBn carrying DOTA-PP; C-terminal amide
